B1: TMEM120A (parent)
chain: YQSFVQFLQYYYQSGCLYRLRALG
B2: DLC1 (parent)
chain: HVTHWMGQPFNSDDRNTACHHGLV

Variants of: B1
Assay: protein stability index of a GFP-peptide fusion (GPS, HEK-293T) (PSI 1-6); higher = more stable
Conditions: c terminus: a fixed tail appended
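Also: lentivirally expressed fusions sorted by FACS into six bins by GFP to DsRed ratio, PSI derived from sequencing read proportions per bin multiplied by bin number.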

First: YQSFVQFLQYYYQSGCLYRRRALG [L20R]
Second: YQSFVQFLQYYYQSGCLYRVRALG [L20V]
The protein stability index of the first is lower: 1.47 for the first, 3.1 for the second.

Compared with YQSFVQFLQYYYQSGCLYRWRALG [L20W], YQSFVQFLQYYYQSGCLYRLDALG [R21D] is lower in protein stability index: 2.31 for the first, 2.28 for the second.

Compared with YQSFVQFLQYYYQSGCLYRLFALG [R21F], YQSFVQFLQYYYQSGCLYRLKALG [R21K] is higher in protein stability index: 1.58 for the first, 2.17 for the second.

Going from YQSFVQFLQYYYQSGCLYRLNALG [R21N] to YQSFVQFLQYYYQSGCLYRLQALG [R21Q], the protein stability index falls from 3.14 to 2.76.

Compared with YQSFVQFLQYYYQSGCLYRLYALG [R21Y], YQSFVQFLQYYYQSGCLYRLRFLG [A22F] is lower in protein stability index: 2.7 for the first, 1.59 for the second.

Going from YQSFVQFLQYYYQSGCLYRLRHLG [A22H] to YQSFVQFLQYYYQSGCLYRLRILG [A22I], the protein stability index falls from 4.48 to 3.44.

Going from YQSFVQFLQYYYQSGCLYRLRKLG [A22K] to YQSFVQFLQYYYQSGCLYRLRLLG [A22L], the protein stability index rises from 1.96 to 3.17.

Compared with YQSFVQFLQYYYQSGCLYRLRSLG [A22S], YQSFVQFLQYYYQSGCLYRLRTLG [A22T] is higher in protein stability index: 2.32 for the first, 3.45 for the second.

First: YQSFVQFLQYYYQSGCLYRLRYLG [A22Y]
Second: YQSFVQFLQYYYQSGCLYRLRACG [L23C]
The protein stability index of the first is lower: 2.13 for the first, 3.82 for the second.

Going from YQSFVQFLQYYYQSGCLYRLRAFG [L23F] to YQSFVQFLQYYYQSGCLYRLRAGG [L23G], the protein stability index rises from 1.77 to 3.3.

YQSFVQFLQYYYQSGCLYRLRAPG [L23P] and YQSFVQFLQYYYQSGCLYRLRASG [L23S] are the same in protein stability index: 2.6 for the first, 2.6 for the second.

Compared with YQSFVQFLQYYYQSGCLYRLRAYG [L23Y], YQSFVQFLQYYYQSGCLYRLRALA [G24A] is lower in protein stability index: 2.61 for the first, 1.65 for the second.

Compared with YQSFVQFLQYYYQSGCLYRLRALC [G24C], YQSFVQFLQYYYQSGCLYRLRALF [G24F] is higher in protein stability index: 1.89 for the first, 2.43 for the second.

Going from YQSFVQFLQYYYQSGCLYRLRALK [G24K] to YQSFVQFLQYYYQSGCLYRLRALL [G24L], the protein stability index falls from 3.01 to 2.97.

Compared with YQSFVQFLQYYYQSGCLYRLRALM [G24M], YQSFVQFLQYYYQSGCLYRLRALN [G24N] is lower in protein stability index: 2.92 for the first, 1.07 for the second.

First: YQSFVQFLQYYYQSGCLYRLRALP [G24P]
Second: YQSFVQFLQYYYQSGCLYRLRALQ [G24Q]
The protein stability index of the first is lower: 2.47 for the first, 3.31 for the second.

Going from YQSFVQFLQYYYQSGCLYRLRALR [G24R] to YQSFVQFLQYYYQSGCLYRLRALT [G24T], the protein stability index falls from 2.65 to 2.27.

Compared with YQSFVQFLQYYYQSGCLYRLRALW [G24W], YQSFVQFLQYYYQSGCLYRLRALY [G24Y] is lower in protein stability index: 2.13 for the first, 2.12 for the second.

Variants of: B2
Assay: as above
Conditions: c terminus: a fixed tail appended

Compared with AVTHWMGQPFNSDDRNTACHHGLV [H1A], CVTHWMGQPFNSDDRNTACHHGLV [H1C] is lower in protein stability index: 2.68 for the first, 2.04 for the second.

First: DVTHWMGQPFNSDDRNTACHHGLV [H1D]
Second: EVTHWMGQPFNSDDRNTACHHGLV [H1E]
The protein stability index of the first is lower: 2.68 for the first, 2.78 for the second.

Going from FVTHWMGQPFNSDDRNTACHHGLV [H1F] to GVTHWMGQPFNSDDRNTACHHGLV [H1G], the protein stability index rises from 1.89 to 3.08.

Compared with IVTHWMGQPFNSDDRNTACHHGLV [H1I], KVTHWMGQPFNSDDRNTACHHGLV [H1K] is higher in protein stability index: 1.83 for the first, 2.46 for the second.

Compared with LVTHWMGQPFNSDDRNTACHHGLV [H1L], MVTHWMGQPFNSDDRNTACHHGLV [H1M] is higher in protein stability index: 2.14 for the first, 2.5 for the second.

Going from NVTHWMGQPFNSDDRNTACHHGLV [H1N] to PVTHWMGQPFNSDDRNTACHHGLV [H1P], the protein stability index rises from 2.76 to 3.08.

First: QVTHWMGQPFNSDDRNTACHHGLV [H1Q]
Second: RVTHWMGQPFNSDDRNTACHHGLV [H1R]
The protein stability index of the first is higher: 2.68 for the first, 2.31 for the second.

Compared with SVTHWMGQPFNSDDRNTACHHGLV [H1S], TVTHWMGQPFNSDDRNTACHHGLV [H1T] is higher in protein stability index: 2.61 for the first, 2.91 for the second.

First: VVTHWMGQPFNSDDRNTACHHGLV [H1V]
Second: WVTHWMGQPFNSDDRNTACHHGLV [H1W]
The protein stability index of the first is higher: 2.51 for the first, 1.78 for the second.

Going from YVTHWMGQPFNSDDRNTACHHGLV [H1Y] to HATHWMGQPFNSDDRNTACHHGLV [V2A], the protein stability index falls from 3.14 to 2.8.

Compared with HCTHWMGQPFNSDDRNTACHHGLV [V2C], HDTHWMGQPFNSDDRNTACHHGLV [V2D] is higher in protein stability index: 2.48 for the first, 3.76 for the second.

First: HETHWMGQPFNSDDRNTACHHGLV [V2E]
Second: HFTHWMGQPFNSDDRNTACHHGLV [V2F]
The protein stability index of the first is higher: 3.78 for the first, 2.71 for the second.

First: HGTHWMGQPFNSDDRNTACHHGLV [V2G]
Second: HHTHWMGQPFNSDDRNTACHHGLV [V2H]
The protein stability index of the first is higher: 3.3 for the first, 2.35 for the second.

First: HITHWMGQPFNSDDRNTACHHGLV [V2I]
Second: HKTHWMGQPFNSDDRNTACHHGLV [V2K]
The protein stability index of the first is lower: 2.22 for the first, 2.65 for the second.

First: HLTHWMGQPFNSDDRNTACHHGLV [V2L]
Second: HMTHWMGQPFNSDDRNTACHHGLV [V2M]
The protein stability index of the first is higher: 2.74 for the first, 2.71 for the second.

First: HNTHWMGQPFNSDDRNTACHHGLV [V2N]
Second: HPTHWMGQPFNSDDRNTACHHGLV [V2P]
The protein stability index of the first is lower: 3.11 for the first, 3.15 for the second.

First: HQTHWMGQPFNSDDRNTACHHGLV [V2Q]
Second: HRTHWMGQPFNSDDRNTACHHGLV [V2R]
The protein stability index of the first is lower: 2.87 for the first, 3.05 for the second.

Going from HSTHWMGQPFNSDDRNTACHHGLV [V2S] to HTTHWMGQPFNSDDRNTACHHGLV [V2T], the protein stability index rises from 2.62 to 2.71.

Going from HWTHWMGQPFNSDDRNTACHHGLV [V2W] to HYTHWMGQPFNSDDRNTACHHGLV [V2Y], the protein stability index rises from 1.98 to 2.42.

Compared with HVAHWMGQPFNSDDRNTACHHGLV [T3A], HVCHWMGQPFNSDDRNTACHHGLV [T3C] is lower in protein stability index: 2.5 for the first, 1.8 for the second.

Compared with HVDHWMGQPFNSDDRNTACHHGLV [T3D], HVEHWMGQPFNSDDRNTACHHGLV [T3E] is higher in protein stability index: 1.66 for the first, 2.38 for the second.

First: HVFHWMGQPFNSDDRNTACHHGLV [T3F]
Second: HVGHWMGQPFNSDDRNTACHHGLV [T3G]
The protein stability index of the first is higher: 1.69 for the first, 1.19 for the second.

First: HVHHWMGQPFNSDDRNTACHHGLV [T3H]
Second: HVIHWMGQPFNSDDRNTACHHGLV [T3I]
The protein stability index of the first is lower: 1.93 for the first, 2.01 for the second.

Going from HVKHWMGQPFNSDDRNTACHHGLV [T3K] to HVLHWMGQPFNSDDRNTACHHGLV [T3L], the protein stability index falls from 1.91 to 1.59.

First: HVMHWMGQPFNSDDRNTACHHGLV [T3M]
Second: HVNHWMGQPFNSDDRNTACHHGLV [T3N]
The protein stability index of the first is higher: 2.05 for the first, 1.99 for the second.

First: HVPHWMGQPFNSDDRNTACHHGLV [T3P]
Second: HVQHWMGQPFNSDDRNTACHHGLV [T3Q]
The protein stability index of the first is higher: 3.11 for the first, 1.93 for the second.

Going from HVRHWMGQPFNSDDRNTACHHGLV [T3R] to HVSHWMGQPFNSDDRNTACHHGLV [T3S], the protein stability index falls from 1.95 to 1.64.

First: HVVHWMGQPFNSDDRNTACHHGLV [T3V]
Second: HVWHWMGQPFNSDDRNTACHHGLV [T3W]
The protein stability index of the first is higher: 2.78 for the first, 1.4 for the second.

Compared with HVYHWMGQPFNSDDRNTACHHGLV [T3Y], HVTAWMGQPFNSDDRNTACHHGLV [H4A] is lower in protein stability index: 1.91 for the first, 1.47 for the second.
